The target of one experiment is (15)KDPGA(0). Kind of experiment: microscale thermophoresis (MST); table row (15)KDPGA(0).
The target of a further experiment is (15)KDPGA(5). Kind of experiment: microscale thermophoresis (MST); table row (15)KDPGA(5). On the technique in general: Microscale thermophoresis detects binding through changes in fluorescence in a small temperature gradient.

B1: M. jannaschii Adriase S1A mutant with C-terminal His-tag, Q57968 3-293 (enzyme)
chain: ALIICYYGKNGAVIGGDRRQIFFRGSEENRKILEEKLYSGEIKSEEELYKLAEKLNIKIIIEDDREKVRKISDSVVCGEVRSLGIDAKRRRVYATKGKCAIVDILNDTVTNQTIKEGFGIVVLGNRFLKKKAEEELKRTAKLFPMMPIQQIEDAIKEIFEKLKWHPTVSKEYDIYSVNKYEKNFEEVIKKDIESLFKYREQLRKQLIDFGKVMSIVNKIVKNGEIGVIKDGKLHLYDDYIAIDKIDPNPKVFKVVDVEGNFKDGDIVVIENGDMKIKGTNEKVTTKYIIIHKGSHHHHHH
With B1, the Kd with (15)KDPGA(0) and in the experiment with (15)KDPGA(5) was > 20 µM in each case.
